Reference: patent publication US20070218051A1, “Epitope peptides immunogenic against Streptococcus pneumoniae” (Sarvamangala J N Devi, priority 1998, published 2007)

Key:
[1] = tested on: S. pneumoniae type 3 strain, WU2; assay: Protection experiment, Example 5: active immunization of xid mice, challenge with WU2; type: in vivo, Streptococcus pneumoniae; conditions: CBA/CaHN/J xid mice immunized with 21 μg s.c. in CFA plus 100 μg IP boost; IV challenge 140 CFU WU2
Description: Twenty CBA/CaHN/J mice carrying the xid mutation were injected according to the following protocol:
1. All mice were bled prior to immunization to establish baseline immunity. Ten test mice were immunized subcutaneously in four sites with a total of 21 μg of 37-kDa protein antigen (pneumococcal fimbrial protein A) emulsified in Complete Freund's adjuvant (CFA). Ten control mice were immunized identically with CFA and buffer substituting for the antigen.
2. Fourteen days later, the mice were boosted intraperitoneally (IP) with 100 μg of the 37-kDa protein antigen (test mice) or with buffer (controls). No adjuvant was used with this booster immunization.
3. Eight days later, all mice were bled via the infraorbital sinus and the were collected and pooled into the two groups (immunized and controls). At the same time, blood was collected from individual mice to assay for antibody responses.
6. At the same time, the eighteen (8 test and 10 control) mice were challenged I.V with the same culture of WU2.
7. Deaths were tallied daily.

[2] = tested on: virulent capsular type 3 Streptococcus pneumoniae strain, WU2; assay: Protection experiment, Example 4: active immunization of xid mice, challenge with WU2; type: in vivo; conditions: CBA/CaHN/J xid mice; about 22 μg s.c. in CFA, 100 μg IP 14 days later; IV challenge 60 CFU WU2; observed 21 days
Description: CBA/CaHN/J Mice. X-linked immune deficiency (xid) CBA/N mice as described by Wicker et al., Curr. Top. Microbiol, Immunol. 124:86-[0] were used to study the protection afforded by the 37-kDa protein.
Twenty CBA/CaHN/J mice carrying the xid mutation […] immunodeficiency) were used in this protection study. They were tested for protection against challenge with a virulent capsulan type 3 Streptococcus pneumoniae strain, WU2. Mice were anesthetized with Ketamine/Rompum and bled infraorbitally to obtain pre-immunization sera. 37-kDa protein (pneumococcal surface adhesin A) was emulsified in complete Freund's adjuvant (CFA) to a protein concentration of 54 μg per ml. Ten mice were injected subcutaneously into 2 axillary and 2 inguinal sites at 0.1 ml per site, delivering approximately 22 μg protein/mouse. Ten control mice were treated identically with CFA and buffer substituting for protein. Fourteen days later, the ten test mice were injected intraperitoneally (IP) with 100 μg of the 37-kDa protein; controls were injected IP with buffer. Eight days following the IP immunizations, all mice were bled infraorbitally to obtain post-immunization sera, and challenged intravenously (IV) with 60 CFU of a log phase culture of S. pneumoniae strain WU2. […]

B1: 37-kDa protein: 37-kDa species-common S. pneumoniae protein, pneumococcal surface adhesin A (PsaA), used as immunogen (protein)
chain: CASGKKDTTSGQKLKVVATNSIIADITKNIAGDKIDLHSIVPIGQDPHEYEPLPEDVKKTSEADLIFYNGINLETGGNAWFTKLVENAKKTENKDYFAVSDGVDVIYLEGQNEKGKEDPHAWLNLENGIIFAKNIAKQLSAKDPNNKEFYEKNLKEYTDKLDKLDKESKDKFNKIPAEKKLIVTSEGAFKYFSKAYGVPSAYIWEINTEEEGTPEQIKTLVEKLRQTKVPSLFVESSVDDRPMKTVSQDTNIPIYAQIFTDSIAEQGKEGDSYYSMMKYNLDKIAEGLAK
- No. Dead/Total No. Challenged [1]: 0/8
- survived (mice surviving/total) [2]: 10/10
